Measured values taken from paper PMC3844103 (Biochemistry, 2013).
Non-standard residues stand in square brackets, D forms with d. pY = N[C@@H](Cc1ccc(OP(=O)(O)O)cc1)C(=O)O

Molecular target: T1, C-terminal SH2 (cSH2) domain of PLC-γ1 (rat, UniProt P10686 664-766)
T1 sequence (looked up): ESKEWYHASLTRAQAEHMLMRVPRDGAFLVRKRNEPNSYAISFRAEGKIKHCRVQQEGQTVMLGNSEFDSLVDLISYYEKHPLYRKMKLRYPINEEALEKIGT
Assay: crystal structure

B1: pTyr783 peptide of PLC-γ1 (peptide)
peptide: Ac-DYGALYEGRNPGF[pY]VEAN-NH2
SMILES: CC(=O)N[C@@H](CC(=O)O)C(=O)N[C@@H](Cc1ccc(O)cc1)C(=O)NCC(=O)N[C@@H](C)C(=O)N[C@@H](CC(C)C)C(=O)N[C@@H](Cc1ccc(O)cc1)C(=O)N[C@@H](CCC(=O)O)C(=O)NCC(=O)N[C@@H](CCCNC(=N)N)C(=O)N[C@@H](CC(N)=O)C(=O)N1CCC[C@H]1C(=O)NCC(=O)N[C@@H](Cc1ccccc1)C(=O)N[C@@H](Cc1ccc(OP(=O)(O)O)cc1)C(=O)N[C@H](C(=O)N[C@@H](CCC(=O)O)C(=O)N[C@@H](C)C(=O)N[C@@H](CC(N)=O)C(N)=O)C(C)C
B1: binds.
